# Target: CD23 coated on ELISA plates (UniProt P06734)
# Assay: ELISA, CD23 coated, pre-formed mAb:IgE complex added, anti-human IgG Fc-HRP detection
substance,measurement,value
pre-formed UB-221:IgE complex (from UniProt P01854 1-428),EC50,0.0416 µg/mL

# — US20230122862A1
